Experimental data published in US20250027068.

B1: PRT-659 (protein)
chain: MQITSVWTKGVTPLTPEQFRYNNEDVIHAPYLAHQGWYDITKAFDGKDNLLCGAATAGNMLHWWFDQNKTEIEAYLSKHPEKQKIIFNNQELFDLREAINTKDDQKDSKLFNYFREKAFPNLSARQLGVMPDLVLDMFINGYYLNVFKTQSTDVNRPYQDKDKRGGIFDAVFTRGDQTTLLTARHDLKNKGLNDISTIIKQELTEGRALALSHTYANVSISHVINLWGADFNAEGNLEAIYVTDSDANASIGMKKYFVGINAHGHVAISAKKIEGENIGAQVLGLFTLSSGKDIWQKLSLEHHHHHH
B2: PRT-629 (protein)
chain: MQITSVWTKGVTPLTPEQFRYNNEDVIHAPYLAHQGWYDITKAFDGKDNLLCGAATAGNMLHWWFDQNKEEIEAYLKKYPEKQKIIFNNQELFDLKAAIDTKDSQTNSQLFNYFRDKAFPNLSARQLGVMPDLVLDMFINGYYLNVFKTQSTDVNRPYQDKDKRGGIFDAVFTRGDQTTLLTARHDLKNKGLNDISTIIKQELTEGRALALSHTYANVSISHVINLWGADFNAEGNLEAIYVTDSDANASIGMKKYFVGINAHGHVAISAKKIEGENIGAQVLGLFTLSSGKEIWQKLSLEHHHHHH
B3: PRT-654 (protein)
chain: MQITSVWTKGVTPLTPEQFRYNNEDVIHAPYLAHQGWYDITKAFDGKDNLLCGAATAGNMLHWWFDQNKTEIEAYLSKHPEKQKIIFNNQELFDLKAAIDTKDSQTNSQLFNYFRDKAFPNLSARQLGVMPDLVLDMFINGYYLNVFKTQSTDVNRPYQDKDKRGGIFDAVFTRGDQTTLLTARHDLKNKGLNDISTIIKQELTEGRALALSHTTGNVSYSHVINLWGADFNAEGNLEAIYVTDSDANASIGMKKYFVGINAHGHVAISAKKIEGENVGAQVLGLFTLSSGKDIWQKLSLEHHHHHH
B4: PRT-630 (protein)
chain: MQITSVWTKGVTPLTPEQFRYNNEDVIHAPYLAHQGWYDITKAFDGKDNLLCGAATAGNMLHWWFDQNKEEIENYLKKYPEKQKIIFNNQELFDLKAAIDTKDSQTNSQLFNYFRDKAFPNLSARQLGVMPDLVLDMFINGYYLNVFKTQSTDVNRPYQDKDKRGGIFDAVFTRGDQTTLLTARHDLKNKGLNDISTIIKQELTEGRALALSHTYANVSISHVINLWGADFNAEGNLEAIYVTDSDANASIGMKKYFVGINAHGHVAISAKKIEGENIGAQVLGLFTLSSGQEIWEQLSLEHHHHHH
B5: PRT-620 (protein)
chain: MQITSVWTKGVTPLTPEQFRYNNEDVIHAPYLAHQGWYDITKAFDGKDNLLCGAATAGNMLHWWFDQNKTEIEAYLSKHPEKQKIIFNNQELFDLKAAIDTKDSQTNSQLFNYFRDKAFPNLSARQLGVMPDLVLDMFINGYYLNVFKTQSTDVNRPYQDKDKRGGIFDAVFTRGDQTTLLTARHDLKNKTLKEISDIIKQELTEGRALALSHTYANVSISHVINLWGADFNAEGNLEAIYVTDSDANASIGMKKYFVGINAHGHVAISAKKIEGENIGAQVLGLFTLSSGKDIWQKLSLEHHHHHH
B6: PRT-634 (protein)
chain: MQITSVWTKGVTPLTPEQFRYNNYDVIHAPYKPNQGWYDITKAFDGKDNLLCGAATAGNMLHWWFDQNKTEIEAYLSKHPEKQKIIFNNQELFDLKAAIDTKDSQTNSQLFNYFRDKAFPNLSARQLGVMPDLVLDMFINGYYLNVFKTQSTDVNRPYQDKDKRGGIFDAVFTRGDQTTLLTARHDLKNKGLNDISTIIKQELTEGKALALSHTYANVSISHVINLWGADFNAEGNLEAIYVTDSDANASIGMKKYFVGINAHGHVAISAKKIEGENIGAQVLGLFTLSSGKDIWQKLSLEHHHHHH
B7: PRT-608 (protein)
chain: MQITSVWTKGVTPLTPEQFRYNNEDVIHAPYLAHQGWYDITKAFDGKDNLLCGAATAGNMLHWWFDQNKTEIEAYLSKHPEKQKIIFNNQELFDLKAAIDTKDSQTNSQLFNYFRDKAFPNLSARQLGVMPDLVLDMFINGYYLNVFKTQSTDVNRPYQDKDKRGGIFDAVFTRGDQTTLLTARHDLKNKGLNDISTIIKQELTEGRALALSHTYANVSISHVINLWGADFNAEGNLEAIYVTDSDADEKIGMKKYFVGINAHGHVAISAKKIEGENIGAQVLGLFTLSSGKDIWQKLSLEHHHHHH
B8: PRT-632 (protein)
chain: MQITSVWTYGVTPLTPEQFRYNNYEVIHAPYKEGQGWYDITKAFDGKDNLLCGAATAGNMLHWWFDQNKTEIEAYLSKHPEKQKIIFNNQELFDLKAAIDTKDSQTNSQLFNYFRDKAFPNLSARQLGVMPDLVLDMFINGYYLNVFKTQSTDVNRPYQDKDKRGGIFDAVFTRGDQTTLLTARHDLKNKGLNDISTIIKQELTEGRALALSHTYANVSISHVINLWGADFNAEGNLEAIYVTDSDANASIGMKKYFVGINAHGHVAISAKKIEGENIGAQVLGLFTLSSGKDIWQKLSLEHHHHHH
B9: PRT-640 (protein)
chain: MQITSVWTKGVTPLTPEQFRYNNEDVIHAPYLAHQGWYDITKTFNGKDNLLCGAATAGNMLHWWFDQNKTEIEAYLSKHPEKQKIIFNNQELFDLKAAIDTKDSQTNSQLFNYFRDKAFPNLSARQLGVMPDLVLDMFINGYYLNVFKTQSTDVNRPYQDKDKRGGIFDAVFTRGDQTTLLTARHDLKNKGLNDISTIIKQELTEGRALALSHTYANVSISHVINLWGADFNAEGNLEAIYVTDSDADEKIGMKKYFVGINAHGHVAISAKKIEGENIGAQVLGLFTLSSGKDIWQKLSLEHHHHHH
B10: PRT-665 (protein)
chain: MQITSVWTKGVTPPTPEQFRYNNEDVIHAPYLAHQGWYDITKAFDGKDNLLCGAATAGNMLHWWFDQNKTEIEAYLSKYPEKQKIIFNNQELFDLRAAINTKDSQTNSQLFNYFRDKAFPNLSARQLGVMPDLVLDMFINGYYLNVFKTQSTDVNRPYQDKDKRGGIFDAVFTRGDQTTLLTARHDLSNKGLNDISTIIKQELTEGRALALSHTYANVSISHVINLWGADFNAEGNLEAIYVTDSDSNASIGMKKYYVGINASGHVAISAKKIEGEVIGAQVLGLFTLSSGKEIWQKLSLEHHHHHH
B11: PRT-563 (protein)
chain: MANQEIRYSEATPSHITSVWTKGVTPPTQFIQNEDVLHAPYIANQGWYDITKTFNGKDDLLCGAATAGNMLHWWFDQNKTQIENYLKKHPEKQKINFNGEQMFDVKEAIDTKDSQTDSALFSYFKDKAFPYLSTKHLGVFPDHVIDMFINGYRLSLTNHGPTPVKRQTKDPRGGIFDAVFTRGDQSKLLTARHDFKEKTLNEISQLIKQELTEGKALGLSHTYANVRINHVINLWGADFNAEGNLEAIYVTDSDSNASIGMKKYYVGVNAAGKVAISAKEIEGDNIGAQVLGLFTLSTGQDIWQQTNLEHHHHHH
B12: PRT-691 (protein)
chain: MQITTVWTKGVTPPTPEQFRYNNEDVIHAPYLPNQGWYDITKTFNGKDNLLCGAATAGNMLHWWFDQNKTEIEAYLSKYPEKQKIIFNNQELFDLRAAINTKDSQTNSQLFNYFRDKAFPNLSARQLGVMPDLVLDMFINGYYLNVFKTQSTDVNRPYQDRDKRGGIFDAVFNRGDQTTLLTARHDLKNKTLNDISTLIKQELSSGKALALSHTYANVSISHVINLWGADFNAEGNLEAIYVTDSDANASIGMKKYYVGVNAHGKVAISAKKIEGENIGAQVLGLFTLSSGKDIWQKLSLEHHHHHH
B13: PRT-66 (protein)
chain: MANQEIRYSEVTPYHVTSVWTKGVTPPANFTQGEDVFHAPYVANQGWYDITKTFNGKDDLLCGAATAGNMLHWWFDQNKDYIKRYLEEHPEKQKINFNGEQMFDVKEAIDTKNHQLDSKLFEYFKEKAFPYLSTKHLGVFPDHVIDMFINGYRLSLTNHGPTPVKEGSKDPRGGIFDAVFTRGDQSKLLTSRHDFKEKNLKEISDLIKKELTEGKALGLSHTYANVRINHVINLWGADFDSNGNLKAIYVTDSDSNASIGMKKYFVGVNSAGKVAISAKEIKEDNIGAQVLGLFTLSTGQDSWNQTN
B14: PRT-615 (protein)
chain: MQITSVWTKGVTPLTPEQFRYNNEDVIHAPYLAHQGWYDITKAFDGKDNLLCGAATAGNMLHWWFDQNKTEIEAYLSKYPEKQKIIFNNQELFDLRAAINTKDSQTNSQLFNYFRDKAFPNLSARQLGVMPDLVLDMFINGYYLNVFKTQSTDVNRPYQDKDKRGGIFDAVFNRGDQTTLLTARHDLKNKGLNDISTIIKQELSSGRALALSHTYANVSISHVINLWGADFNAEGNLEAIYVTDSDANSNIGMKKYKVGINAHGHVAISAKKIEGENIGAQVLGLFTLSSGKDIWQKLSLEHHHHHH

Biological target: pooled human IgG

Protein	Enzyme Activity Endpoint Assay (purified): Fab′2	Enzyme Activity Endpoint Assay (purified): Fc	Enzyme Activity Endpoint Assay (purified): IgG	Enzyme Activity Endpoint Assay (purified): scIgG
B1	946 ng/µL	499 ng/µL	0 ng/µL	0 ng/µL
B2	542 ng/µL	425 ng/µL	161 ng/µL	461 ng/µL
B3	401 ng/µL	0 ng/µL	1170 ng/µL	11 ng/µL
B4	850 ng/µL	464 ng/µL	0 ng/µL	0 ng/µL
B5	792 ng/µL	448 ng/µL	0 ng/µL	0 ng/µL
B6	755 ng/µL	394 ng/µL	0 ng/µL	0 ng/µL
B7	863 ng/µL	484 ng/µL	0 ng/µL	0 ng/µL
B8	703 ng/µL	399 ng/µL	0 ng/µL	0 ng/µL
B9	951 ng/µL	507 ng/µL	0 ng/µL	0 ng/µL
B10	816 ng/µL	414 ng/µL	63 ng/µL	109 ng/µL
B11	816 ng/µL	389 ng/µL	0 ng/µL	0 ng/µL
B12	184 ng/µL	337 ng/µL	110 ng/µL	682 ng/µL
B13	49 ng/µL	115 ng/µL	15 ng/µL	13 ng/µL
B14	778 ng/µL	441 ng/µL	0 ng/µL	0 ng/µL
